The record followed here is patent US20240343799A1 (Innovent, published 2024).

The term Kd denotes the equilibrium constant for the complex coming apart. One may read the EC50 (read off the curve) as the concentration that produces a half-maximal response. A higher EC50 (read off the curve) goes with weaker potency.

The target in experiment [1] is T1, human CD79b (recombinant antigen in the ForteBio assays) (human, UniProt P40259 29-159).
T1 construct: the immunogen was CD79b protein from Sino, Cat #29750-H08H; also called huCD79b
T1 sequence (looked up): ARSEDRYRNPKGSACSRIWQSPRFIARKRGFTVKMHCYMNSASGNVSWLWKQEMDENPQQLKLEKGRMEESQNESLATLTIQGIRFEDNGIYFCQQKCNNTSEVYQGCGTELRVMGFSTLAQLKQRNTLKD
In words: BLI (ForteBio), antibody loaded on sensor, antigen in solution. Here is the method: The equilibrium dissociation constants (KD) for binding of the antibodies of the present invention to CD79b were determined by bio-layer interferometry (ForteBio). A ForteBio affinity assay of prior art was performed (Estep, P., et al., “High throughput solution Based measurement of antibody-antigen affinity and epitope binning”, MAbs, 2013.5 (2): 270-8).
(§1) Briefly, an AMQ (Pall, 1506091) sensor was equilibrated offline in an assay buffer for 30 min and then equilibrated online for 60 s to establish a baseline. The purified antibodies obtained as described above were each loaded online onto an AHQ sensor (ForteBio) for the ForteBio affinity assay. The sensor with the loaded antibody was then exposed to antigen CD79b before transferring the sensor to the assay buffer to measure the dissociation rate. The KD values were analyzed using ForteBio analysis software.

In experiment [2] the target is T2, CD79b on the surface of B-cell non-Hodgkin's lymphoma cells (human, UniProt P40259 29-229).
T2 construct: whole, on cells; Endogenous CD79b of the cell lines; on cells it stands in the B cell receptor complex with CD79a; also called CD79b on Ramos cells; CD79b on BJAB cells
T2 sequence (looked up): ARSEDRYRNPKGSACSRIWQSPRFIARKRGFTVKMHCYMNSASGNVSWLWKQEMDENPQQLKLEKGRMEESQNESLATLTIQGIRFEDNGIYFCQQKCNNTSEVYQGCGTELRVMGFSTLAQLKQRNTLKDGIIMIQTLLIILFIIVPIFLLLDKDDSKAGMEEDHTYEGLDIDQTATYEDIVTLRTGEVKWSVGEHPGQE
In words: flow cytometry on Ramos cells, goat anti-human IgG PE. The procedure:
(§2) Ramos (ATCC, Cat #CRL-1596) and BJAB (AddexBio, USA, Cat #C0003016) were passaged according to the conventional procedures. Cells were counted after centrifugation and resuspension, adjusted to a density of 4×10⁶ cells/mL, poured into a loading tank, and seeded to a 96-well plate at 50 μL/well using a multichannel pipettor. 50 μL of the antibody sample diluted in gradient was added to the 50 μL of cells in each well, and the mixture was then incubated in an incubator at 5% CO₂ and 37° C. for 30 min. The mixture was centrifuged at 400 g for 5 min, then 200 μL of PBS was added, and the resulting mixture was centrifuged at 400 g for 5 min. This procedure was repeated 3 times. Goat anti-human IgG PE (1:200) was added, and the mixture was incubated for 30 min in the dark at room temperature. The mixture was washed with 200 μL of PBS twice, centrifuged, and then resuspended in 100 μL of PBS, and the values were read using a flow cytometer. The values were fitted to obtain a curve and EC₅₀ values were calculated.
(§3) The binding of the humanized antibodies to Ramos and BJAB cells was detected by flow cytometry. The assay was the same as in Example 4. The binding of the humanized antibodies to CD79b on the surface of Ramos cells is shown in FIG. 3; the binding of the humanized antibodies to CD79b on the surface of BJAB cells is shown in FIG. 4.
For orientation: Flow cytometry measures light scatter and fluorescence of single cells or particles in a stream.

The target of experiment [3] is T1, human CD79b (recombinant antigen in the …). The experiment in a line: BLI (ForteBio), antibody loaded on sensor, antigen in solution. Here is the method: as §1
The equilibrium dissociation constants (KD) for the binding of the humanized antibodies of the present invention to human CD79b were determined by ForteBio.
This is another data set of the same source.

For experiment [4], the target named is T2, CD79b on the surface of B-cell …. The experiment in a line: flow cytometry on BJAB cells, goat anti-human IgG PE. Here is the method:
as §2, §3

Experiment [5] addresses T1, human CD79b (recombinant antigen in the …). The experiment in a line: BLI (ForteBio). In general terms: BLI is a label-free optical method that tracks binding on a fibre tip over time.

B1: A7v14b (antibody, V domains shown)
VH: EVQLVQSGAEVKKPGASVKVSCKASGYTFTTYYMNWVRQAPGQGLEWIGMIDPSDSETHYNQKFQGRATLTVDTSTSTAYLELSSLRSEDTAVYYCSRSLAFWGQGTLVTVSS
VL: DIVMTQTPLSLPVTPGQPASISCKSSQSLLDSDGKTYLNWLLQKPGQSPQSLIYLVSKLDSGVPDRFSGSGSGTDFTLKISRVEAEDVGVYYCWQGTHFPQTFGQGTKVEIK
notes: also called CD79b.A7v14b
B1: the Kd in experiment [1] and in experiment [3] was 1.84 nM each time. Besides, the “EC50 (read off the curve)” value in experiment [2] was roughly 4 nM; in experiment [4], roughly 3 nM.

B2: polmab (antibody, human IgG1, kappa, V domains shown)
VH: EVQLVESGGGLVQPGGSLRLSCAASGYTFSSYWIEWVRQAPGKGLEWIGEILPGGGDTNYNEIFKGRATFSADTSKNTAYLQMNSLRAEDTAVYYCTRRVPIRLDYWGQGTLVTVSS
VL: DIQLTQSPSSLSASVGDRVTITCKASQSVDYEGDSFLNWYQQKPGKAPKLLIYAASNLESGVPSRFSGSGSGTDFTLTISSLQPEDFATYYCQQSNEDPLTFGQGTKVEIKR
As for B2, the Kd in experiment [1] amounted to 12.7 nM; in experiment [5] it was 13.7 nM; in experiment [3], 12.7 nM. The figures for the “EC50 (read off the curve)” value in experiment [2] and in experiment [4] were roughly 3 nM and roughly 2 nM, respectively.
